Experimental data published in patent publication US20110136733A1 (IPSEN PHARMA S A S, published 2011).
Substitutions are numbered along the chain they refer to. Where no end group is shown, it is not given here. [ ]: non-standard residue; d: D form. Ac6c = NC1(C(=O)O)CCCCC1; Nle = CCCC[C@H](N)C(=O)O; Ac5c = NC1(C(=O)O)CCCC1; Aib = CC(C)(N)C(=O)O

T1: human recombinant GIP receptor (human, UniProt P48546 22-466)
T1 construct: whole, on cells; Membranes of CHO-K1 cells expressing the receptor; also called hGIP receptor
T1 sequence (looked up): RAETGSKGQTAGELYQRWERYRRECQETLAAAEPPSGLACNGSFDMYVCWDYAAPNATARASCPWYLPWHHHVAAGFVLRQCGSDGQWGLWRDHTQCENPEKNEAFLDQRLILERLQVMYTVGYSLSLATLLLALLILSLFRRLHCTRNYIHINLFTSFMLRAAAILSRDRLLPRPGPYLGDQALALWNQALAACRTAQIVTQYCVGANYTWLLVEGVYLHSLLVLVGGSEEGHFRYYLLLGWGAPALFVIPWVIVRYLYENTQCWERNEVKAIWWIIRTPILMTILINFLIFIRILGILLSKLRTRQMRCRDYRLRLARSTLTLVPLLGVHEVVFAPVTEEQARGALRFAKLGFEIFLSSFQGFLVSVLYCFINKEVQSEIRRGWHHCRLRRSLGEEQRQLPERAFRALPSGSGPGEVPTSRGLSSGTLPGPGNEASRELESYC

B1: (Aib^2, A6c^7, Nle^14)hGIP(1-42)-OH (peptide)
peptide: Y[Aib]EGTF[Ac6c]SDYSIA[Nle]DKIHQQDFVNWLLAQKGKKNDWKHNITQ-OH
B2: (Aib^2, 13, Nle^14)hGIP(1-30)-NH2 (peptide)
peptide: YXEGTFISDYSIXXDKIHQQDFVNWLLAQK
modifications: Aib at 2 and 13; Nle at 14; C-terminal amide
B3: (Aib^2, 13, Pro^3, Nle^14)hGIP(1-30)-NH2 (peptide)
peptide: Y[Aib]PGTFISDYSI[Aib][Nle]DKIHQQDFVNWLLAQK-NH2
B4: (Aib^2, A5c^7, Nle^14)hGIP(1-42)-OH (peptide)
peptide: Y[Aib]EGTF[Ac5c]SDYSIA[Nle]DKIHQQDFVNWLLAQKGKKNDWKHNITQ-OH
B5: (A5c^2, Nle^14)hGIP(1-42)-OH (peptide)
peptide: YXEGTFISDYSIAXDKIHQQDFVNWLLAQKGKKNDWKHNITQ
modifications: A5c at 2; Nle at 14; C-terminal free acid
B6: (Aib^2, A5c^11)hGIP(1-42)-OH (peptide)
peptide: B5 peptide with S11X, X14M
modifications: Aib at 2; A5c at 11; C-terminal free acid
B7: (Aib^2, A6c^7, 14)hGIP(1-42)-OH (peptide)
peptide: B5 peptide with I7X
modifications: Aib at 2; A6c at 7 and 14; C-terminal free acid
B8: (Aib^2, 11, Nle^14)hGIP(1-42)-OH (peptide)
peptide: B5 peptide with S11X
modifications: Aib at 2 and 11; Nle at 14; C-terminal free acid
B9: (Aib^2, A6c^14)hGIP(1-42)-OH (peptide)
peptide: B5 peptide
modifications: Aib at 2; A6c at 14; C-terminal free acid
B10: (Aib^2, 13, Nle^14)hGIP(1-42)-OH (peptide)
peptide: B5 peptide with A13X
modifications: Aib at 2 and 13; Nle at 14; C-terminal free acid
B11: (A5c^2, 7, A6c^14)hGIP(1-42)-OH (peptide)
peptide: B5 peptide with I7X
modifications: A5c at 2 and 7; A6c at 14; C-terminal free acid
B12: (Aib^2, A5c^7, A6c^14)hGIP(1-42)-OH (peptide)
peptide: B5 peptide with I7X
modifications: Aib at 2; A5c at 7; A6c at 14; C-terminal free acid
B13: (Aib^2, 11, A6c^14)hGIP(1-42)-OH (peptide)
peptide: B5 peptide with S11X
modifications: Aib at 2 and 11; A6c at 14; C-terminal free acid
B14: (Aib^2, A5c^11, Nle^14)hGIP(1-42)-OH (peptide)
peptide: B5 peptide with S11X
modifications: Aib at 2; A5c at 11; Nle at 14; C-terminal free acid
B15: (Aib^2, A5c^11, Nle^14)hGIP(1-30)-NH2 (peptide)
peptide: B2 peptide with S11X, X13A
modifications: Aib at 2; A5c at 11; Nle at 14; C-terminal amide
B16: (Aib^2, A5c^11)hGIP(1-30)-NH2 (peptide)
peptide: B2 peptide with S11X, X13A, X14M
modifications: Aib at 2; A5c at 11; C-terminal amide
B17: (Aib^2, A6c^7, 14)hGIP(1-30)-NH2 (peptide)
peptide: B2 peptide with I7X, X13A
modifications: Aib at 2; A6c at 7 and 14; C-terminal amide
B18: (Aib^2, A6c^7)hGIP(1-42)-OH (peptide)
peptide: Y[Aib]EGTF[Ac6c]SDYSIAMDKIHQQDFVNWLLAQKGKKNDWKHNITQ-OH
B19: (Aib^2, A5c^11, A6c^14)hGIP(1-30)-NH2 (peptide)
peptide: B2 peptide with S11X, X13A
modifications: Aib at 2; A5c at 11; A6c at 14; C-terminal amide
B20: (Aib^2, 13)hGIP(1-30)-NH2 (peptide)
peptide: B2 peptide with X14M
modifications: Aib at 2 and 13; C-terminal amide
B21: (Aib^2, A6c^7)hGIP(1-30)-NH2 (peptide)
peptide: B2 peptide with I7X, X13A, X14M
modifications: Aib at 2; A6c at 7; C-terminal amide
B22: (Aib^2, 5)hGIP(1-42)-OH (peptide)
peptide: Y[Aib]EG[Aib]FISDYSIAMDKIHQQDFVNWLLAQKGKKNDWKHNITQ-OH
B23: (Aib^2, A5c^5)hGIP(1-42)-OH (peptide)
peptide: Y[Aib]EG[Ac5c]FISDYSIAMDKIHQQDFVNWLLAQKGKKNDWKHNITQ-OH

These binders were tested against T1, human recombinant GIP receptor (assay: [125I]GIP competition, membranes of CHO-K1 cells expressing human GIP receptor).
B1 gave a Ki of 0.45 nM.
In the case of B2, the Ki is reported as 0.09 nM.
Work on B3 yielded a Ki of 0.07 nM.
In the case of B4, the Ki is reported as 0.69 nM.
With B5 the Ki was 15.9 nM.
B6 showed a Ki of 0.08 nM.
For B7, the Ki was 0.83 nM.
Binder B8 has a Ki of 0.29 nM.
B9 gave a Ki of 0.07 nM.
Binder B10 has a Ki of 0.05 nM.
With B11 the Ki was 34.4 nM.
In the case of B12, the Ki is reported as 0.63 nM.
Work on B13 yielded a Ki of 0.73 nM.
Work on B14 yielded a Ki of 0.43 nM.
For B15, the Ki was 0.16 nM.
For B16, the Ki was 0.09 nM.
B17 showed a Ki of 1.19 nM.
In the case of B18, the Ki is reported as 0.3 nM.
B19 gave a Ki of 0.15 nM.
B20 gave a Ki of 0.33 nM.
With B21 the Ki was 0.03 nM.
In the case of B22, the Ki is reported as 4.08 nM.
B23 showed a Ki of 2.26 nM.
